# T1: BCL-W (1-164), biotinylated, with C-terminal biotinylation sequence (UniProt Q92843 1-164)
# T1 sequence: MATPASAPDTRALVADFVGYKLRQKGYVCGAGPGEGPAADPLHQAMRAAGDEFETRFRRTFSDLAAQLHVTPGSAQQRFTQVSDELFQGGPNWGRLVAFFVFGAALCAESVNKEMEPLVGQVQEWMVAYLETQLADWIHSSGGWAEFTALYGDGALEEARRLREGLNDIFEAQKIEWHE
# T2: BCL-B (1-177;C30S/C138S), biotinylated, with C-terminal biotinylation sequence (UniProt Q9HD36 1-177)
# T2 construct: range 1-177
# T2 sequence: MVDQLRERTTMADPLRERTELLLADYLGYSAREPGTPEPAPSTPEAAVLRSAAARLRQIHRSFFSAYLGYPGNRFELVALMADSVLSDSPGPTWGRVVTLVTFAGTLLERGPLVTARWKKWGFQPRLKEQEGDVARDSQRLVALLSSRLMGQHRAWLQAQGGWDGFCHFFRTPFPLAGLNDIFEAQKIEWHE
# T3: BFL-1 (1-151;C4S/C19S), biotinylated, with C-terminal biotinylation sequence (UniProt Q16548 1-151)
# T3 construct: range 1-151; also called BFL-1 (A1)
# T3 sequence: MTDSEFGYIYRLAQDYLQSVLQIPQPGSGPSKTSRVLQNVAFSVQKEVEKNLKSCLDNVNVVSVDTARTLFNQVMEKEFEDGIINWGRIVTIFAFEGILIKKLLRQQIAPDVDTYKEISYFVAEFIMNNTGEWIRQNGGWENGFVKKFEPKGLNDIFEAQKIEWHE
# Legend:
# [1] = target: T4, MCL-1 (172-321), biotinylated, with C-terminal biotinylation sequence (Homo sapiens (Human), UniProt Q07820 172-321); test: SPR, MCL-1 immobilized, analyte series from 5 to 320 nM
# Method: (§1) SPR data were collected on an 8 K device (GE Healthcare). A Series S Biotin CAPture kit (GE Healthcare) was used to immobilize biotinylated anti-apoptotic BCL-2 proteins, and all experiments were conducted in HBS-EP+buffer solution (10 mM HEPES, 150 mM NaCl, 3 mM EDTA, 0.005% Surfactant P20; GE Healthcare). Biotinylated anti-apoptotic BCL-2 proteins were immobilized on the CAP chip until the response units reached 100. Serially diluted analytes were injected at a flow rate of 30 μl/min. Analytes were used at 20 nM for single concentration experiments. Dissociation constants (KD) and kinetic parameters (Kₐ and Kd) were estimated using Biacore 8 K evaluation software (GE Healthcare).
# [2] = target: T1, BCL-W (1-164), biotinylated, with …; test: SPR, biotinylated BCL-W on CAP chip; target BCL-W
# Method: as §1
# [3] = target: T2, BCL-B (1-177;C30S/C138S), biotinylated, …; test: SPR, biotinylated BCL-B on CAP chip; target BCL-B
# Method: as §1
# [4] = target: T5, BCL-xL (1-44:85-209), biotinylated, with C-terminal biotinylation sequence (Homo sapiens (Human), UniProt Q07817 1-209, biotin on the C-terminal biotinylation sequence … (co-expressed BirA)); test: SPR, BCL-xL immobilized, analyte series from 1.25 to 80 nM
# T5 construct: Form immobilised on the CAP chip for SPR; Any purification tag from pJK hTx is not described
# Method: as §1
# [5] = target: BCL-2 (1-34:chimeric loop:92-203), biotinylated, with C-terminal biotinylation sequence (UniProt P10415 1-34; P10415 92-203); test: SPR, biotinylated BCL-2 on CAP chip
# Method: as §1
# [6] = target: T3, BFL-1 (1-151;C4S/C19S), biotinylated, …; test: SPR, biotinylated BFL-1 on CAP chip; target BFL-1
# Method: as §1
# [7] = target: T4, MCL-1 (172-321), biotinylated, with …; test: SPR, biotinylated MCL-1 on CAP chip
# Method: as §1
# [8] = target: T4, MCL-1 (172-321), biotinylated, with …; test: SPR, ratio of KD values
# Method: as §1
# [9] = target: T6, MCL-1 (172-321) (Homo sapiens (Human), UniProt Q07820 172-321); test: size-exclusion chromatography (Superdex 75 Increase 10/300 GL), qualitative binding assay
# [10] = target: T5, BCL-xL (1-44:85-209), biotinylated, …; test: SPR, different analyte concentrations, biotinylated BCL-xL on CAP chip
# Method: as §1
# [11] = target: T6, MCL-1 (172-321); test: crystal structure
# Method: Crystals were obtained by the hanging-drop vapor diffusion method at 20° C. […] The crystals were immersed briefly in a cryoprotectant solution. […] X-ray diffraction datasets were collected on beamline 5C at Pohang Accelerator Laboratory, South Korea. […] Then, automatic model building into the electron densities and structure refinement were performed using the PHENIX software suit. […] Iterative rounds of manual model building and refinement were carried out using the programs COOT and PHENIX. All structures were illustrated using the PYMOL software.
# [12] = target: T5, BCL-xL (1-44:85-209), biotinylated, …; test: SPR, ratio of KD values
# Method: as §1
# [13] = target: T5, BCL-xL (1-44:85-209), biotinylated, …; test: SPR, biotinylated BCL-xL on CAP chip
# Method: as §1
# [14] = target: T5, BCL-xL (1-44:85-209), biotinylated, …; test: comparison of KD values (SPR)
# [15] = target: T4, MCL-1 (172-321), biotinylated, with …; test: comparison of KD values (SPR)
# [16] = target: MCL-1, endogenous, in K562, HCT-116, SW620, MEWO and A375 cancer cells (Homo sapiens (Human)) (UniProt Q07820); test: cell-based or functional assay
# [17] = target: BCL-xL, endogenous, in K562, HCT-116, SW620, MEWO and A375 cancer cells (Homo sapiens (Human)) (UniProt Q07817); test: cell-based or functional assay
# Chain of BCL-xL, endogenous, in K562, HCT-116, SW620, MEWO and A375 cancer cells (Homo sapiens (Human)) (Q07817 whole entry): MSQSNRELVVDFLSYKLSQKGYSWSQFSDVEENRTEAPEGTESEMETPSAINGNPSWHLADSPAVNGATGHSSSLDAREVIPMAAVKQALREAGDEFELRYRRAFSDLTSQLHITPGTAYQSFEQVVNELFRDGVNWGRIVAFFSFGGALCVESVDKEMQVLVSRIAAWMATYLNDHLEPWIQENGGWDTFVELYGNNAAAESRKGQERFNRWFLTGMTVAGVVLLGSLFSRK
# T4 sequence (Q07820 other isoform, or with tags, fused parts or gaps): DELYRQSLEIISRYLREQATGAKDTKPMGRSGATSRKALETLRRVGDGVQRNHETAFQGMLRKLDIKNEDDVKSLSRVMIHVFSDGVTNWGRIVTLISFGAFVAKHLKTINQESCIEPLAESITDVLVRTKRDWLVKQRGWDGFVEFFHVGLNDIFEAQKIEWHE
# T5 sequence (Q07817 other isoform, or with tags, fused parts or gaps): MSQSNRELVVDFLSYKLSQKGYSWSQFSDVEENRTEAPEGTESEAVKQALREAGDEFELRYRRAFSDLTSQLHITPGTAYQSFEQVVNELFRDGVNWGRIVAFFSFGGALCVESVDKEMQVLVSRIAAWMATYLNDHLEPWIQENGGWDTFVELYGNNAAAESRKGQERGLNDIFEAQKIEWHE
# T6 sequence (Q07820 172-321): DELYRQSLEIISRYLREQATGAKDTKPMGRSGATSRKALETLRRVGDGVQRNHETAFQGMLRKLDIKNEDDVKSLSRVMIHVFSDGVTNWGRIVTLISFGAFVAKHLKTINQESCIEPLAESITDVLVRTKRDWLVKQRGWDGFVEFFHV
# Chain of BCL-2 (1-34:chimeric loop:92-203), biotinylated, with C-terminal biotinylation sequence (P10415 other isoform, or with tags, fused parts or gaps mutant): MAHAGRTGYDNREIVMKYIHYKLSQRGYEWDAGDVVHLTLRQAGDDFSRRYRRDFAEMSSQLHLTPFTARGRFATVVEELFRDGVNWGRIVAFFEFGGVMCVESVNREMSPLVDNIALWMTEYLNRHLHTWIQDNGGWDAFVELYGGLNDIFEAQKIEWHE
binder,measurement,setting,value
"4H_αBM_2 (I143L/I54E/G58E) (designed binder, also called 4H_αBM_3 (I54E/G58E)) MDAKKVAKKAAIQAARRITELAQVLVELLKEALKLDLTQEMRKKLIERYAAAIERAIEDINNAIYQAKQEAEKLKKAGLVDSDQLDALLRALDELQKVASKAANQLGRLFEEALKRLDKDNGGEEEKDRTAKWFEFEARAIELALRLAAIGDVFDLEKEWRKLK",Kd,[1],113 nM
same,Kd,[2],1.59 nM
same,Kd,[3],146 nM
same,Kd,[4],0.82 nM
same,Kd,[5],2.04 nM
same,Kd,[6],16.4 nM
same,Kd,[7],133 nM
same,fold reduced affinity (against 4H_αBM_2 (I54E/G58E)),[8],~7 fold
"4H_αBM_1 (designed binder, also called D81) MDAKKVAKKAADQAANRIRELAQVLVELLKEALKLDLTQEMRKKLIERYAAAIIRAIGDINNAIYQAKQEAEKLKKAGLVDSDQLDALLRALDELQKVASKAANQLGRLFEEALKRLDKDNGGEEEKDRTAKWFEFEARAIAIALTLAAIGDVFDLEKEWRKLK",binding result,[9],binds
same,Kd,[10],8.57 nM
4H_αBM_2 (designed binder) MDAKKVAKKAAIQAARRITELAQVLVELLKEALKLDLTQEMRKKLIERYAAAIIRAIGDINNAIYQAKQEAEKLKKAGLVDSDQLDALLRALDELQKVASKAANQLGRLFEEALKRLDKDNGGEEEKDRTAKWFEFEARAIEIALRLAAIGDVFDLEKEWRKLK,binding result,[11],binds
same,fold stronger binding than 4H_αBM_1,[12],40 fold
same,Kd,[13],0.21 nM
"4H_αBM_3 (designed binder, also called 4H_αBM_2 (I143L)) MDAKKVAKKAAIQAARRITELAQVLVELLKEALKLDLTQEMRKKLIERYAAAIIRAIGDINNAIYQAKQEAEKLKKAGLVDSDQLDALLRALDELQKVASKAANQLGRLFEEALKRLDKDNGGEEEKDRTAKWFEFEARAIELALRLAAIGDVFDLEKEWRKLK",fold higher binding affinity than human BIM BH3,[14],> 8 fold
same,fold higher binding affinity than human BIM BH3,[15],> 8 fold
"4H_αBM_2 (I54E/G58E) (designed binder, also called 4H_αBM_2 (154E/G58E)) MDAKKVAKKAAIQAARRITELAQVLVELLKEALKLDLTQEMRKKLIERYAAAIERAIEDINNAIYQAKQEAEKLKKAGLVDSDQLDALLRALDELQKVASKAANQLGRLFEEALKRLDKDNGGEEEKDRTAKWFEFEARAIEIALRLAAIGDVFDLEKEWRKLK",Kd,[7],19.2 nM
"4H_αBM_3_CTS, 3×FLAG-tagged, expressed in cancer cell lines by lentivirus (designed binder, not shown: small tags and cut ends) MDAKKVAKKAAIQAARRITELAQVLVELLKEALKLDLTQEMRKKLIERYAAAIIRAIGDINNAIYQAKQEAEKLKKAGLVDSDQLDALLRALDELQKVASKAANQLGRLFEEALKRLDKDNGGEEEKDRTAKWFEFEARAIELALRLAAIGDVFDLEKEWRKLKPRMVILRLLRYIVRLVWRMH","cell viability (WST-1), A375 cells",[16],11%
same,"cell viability (WST-1), HCT-116 cells",[16],50%
same,"cell viability (WST-1), K562 cells",[16],33%
same,"cell viability (WST-1), MEWO cells",[16],33%
same,"cell viability (WST-1), SW620 cells",[16],27%
same,"cell viability (WST-1), A375 cells",[17],11%
same,"cell viability (WST-1), HCT-116 cells",[17],50%
same,"cell viability (WST-1), K562 cells",[17],33%
same,"cell viability (WST-1), MEWO cells",[17],33%
same,"cell viability (WST-1), SW620 cells",[17],27%
